Measurements: the nanobody polyreactivity screen of Harvey et al. (2022)

Experiment: yeast display, Sf9 membrane polyspecificity reagent, FACS + sequencing; frameworks hold sequencing errors
Procedure, shortened: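 Synthetic nanobody libraries on Saccharomyces cerevisiae BJ5465 were galactose-induced for 36–48 hours, stained 1 hour at 4 °C with 10% biotinylated, detergent-solubilized Sf9 membrane reagent and enriched on streptavidin microbeads. FACS then separated cells into low and high (top ~1%) gates by anti-HA (expression) and streptavidin (reagent binding) fluorescence. Genes were colony-PCR amplified, MiSeq 2 × 250 sequenced and CDR-length filtered. A clone's polyreactivity label is that of its gate of origin.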

Sequence	polyreactivity (PSR sort gate)
QVQLVESGGGLVQAGGSLSLSCAASGFTFGRNAMGWYRQAPGKERELVASIDWSGGSTYYADSVKGRFTISRDNAKNTVYLQMNSLKPEDTAVYYCAVGPNSVGNRSYGFDYWGQGTQVTVSS	low polyreactivity
QVQLVESGGGLVQAGGSLSLSCAASGFTFYSYTMGWYRQAPGKDREMVAAISGRSVRTYYADSVKGRFTISRDNAKNTVYLQMNSLKPEDTAVYYCARAYYWRTSWYNYWGQGTQVTVSS	high polyreactivity
QVQLVESGGGLVQAGGSLSLSCAASGIIFYNYAMGWYRQAPGKERELVAAISSSGGRTYYAESVKGRFTISRDNAKNTVYLQMNSLKPEDTAVYYCAAYVWAYYVPYNYGYWGQGTQVTVSS	high polyreactivity
QVQLVESGGGLVQAGGSLSLSCAASGITLYWYAMRWYIQAPGKERELVATINWSGGSTYYADSVKGRFTISRDNAKNTVYLQMNSLKPEDTAVYYCNVDYSDEGMGYWGQGTQVTVSS	low polyreactivity
QVQLVESGGGLVQAGGSLSLSCAASGLIFLQYGMGWYREAPGKERELVAAITTRGGRTYYADSVKRRFTISRDNAKNTVYLQMNSLKPEDTAVYYCAADSEQDNLRYYRWVWYYYWGQGTQVTVSS	low polyreactivity
QVQLVESGGGLVQAGGSLSLSCAASGLIFYIYAMGWYRQAPGKEMELVAAITESGGSTYYADSVKGRFTISRDNAKNTVYLQMNSLKPEDTAVYYCAKDFHNYPSFGEDYWGQGTQVTVSS	low polyreactivity
QVQLVESGGGLVQAGGSLSLSCAASGLTFANYVMGWYRQEPGKERELVAAISRSGGSTYYADSVKGRFTISRDNAKNTVYLQMNSLKPEDPAVYYCAAAAWDPKGSRYDYWGQGPQVTVSS	low polyreactivity
QVQLVESGGGLVQAGGSLSLSCAASGLTFTGNAMGWYRQAPGKERELVAAISWSGGSTYYADSVKGRYTISRDNAKNTVYLQMNSLKPEDTAVYYCGDPDSRYDYWGQGTQVTVSS	high polyreactivity
QVQLVESGGGLVQAGGSLSLSCAASGLTFVYYVMGWYRQAPGKERELVAAISSGGGTYYADSVKGRFTISRDNAKNTVYLQMNSLKPEDTAVYYCAADLLGWFDFDYWGQGTQVTVSS	high polyreactivity
QVQLVESGGGLVQAGGSLSLSCAASGRIFADNAMGWYRQSPGKESELVADITYSGGSTYYAESVKGRFTISRDNAKNTLYLQMNSLNPEDTAFYYCAKQCVDYWGQGTQVTVSS	low polyreactivity
QVQLVESGGGLVQAGGSLSLSCAASGRIFNQNAMGWYRQAPGKERELVAAISKSGTRTYYADSVKGRFTISRDNAKNTVYLQMNSLNREDTAVYYCAADYYRRIGGYRYDYDYWGQGTEVTVSS	high polyreactivity
QVQLVESGGGLVQAGGSLSLSCAASGRIFPPYAMGWYRPAPGKERELVAAISVSGSNTYYADSVKGRFTISRYNAKNTVYLQMNSLKPEDTAVYYCNAKRYSPVYYWYDYCGQGTQVTVSS	high polyreactivity
QVQLVESGGGLVQAGGSLSLSCAASGRIFYYNAMGWYRQAPGKERELVAAITRGGSTYYADSVKGRFTISRDNAKNTVYLQMNSLKPEDTAVYYCAADRTGYSRYTTSVKGQRYYYWGQGTQVTVSS	high polyreactivity
QVQLVESGGGLVQAGGSLSLSCAASGRIRRYTMGWYRQAPGKERELVASISGNGGSTYYADSVTGRFTISRDNAKNTVYLQMNSLKPEDTAVYDCARTKQEYTFGQFYLGDYWGQGTQVTVSS	low polyreactivity
QVQLVESGGGLVQAGGSLSLSCAASGRNFVINALGWYRQAPGTERELVARIRSGGSTNYADSVKGRFTISRDNAKNTVYLQMNSLKPEDTAVYYCAAYLRTERYGYWGQGTQVTVSS	high polyreactivity
QVQLVESGGGLVQAGGSLSLSCAASGRTFDTYAMGWYRQAPGKERELVASITQSGGTTYYADSVKGRFTISRDNAKNTVYLQMNSLKPEDTAVYYCAARSYGSTSPIRVQLYYWGQGTQVTVSS	high polyreactivity

Sequence	polyreactivity (PSR sort gate)
QVQLVESGGGLVQAGGSLSLSCAASGRTFFKYAMGWYRQAPGKERELVASITGRGGSTYADSVKGRFTISRDNAKNTVYLQMNSLKPEDTAVYYCAKVYQRGAQYYYYKYDYWGQGTQVTVSS	high polyreactivity
QVQLVESGGGLVQAGGSLSLSCAASGRTFGSYAMGWYRQAPGKERELVAAITGSGGSTYYADSVKGRFTISRDNAKNNVYLQMNSLKPEDTAVYYCRYLFGYIAMDYWGQGTQVTVSS	low polyreactivity
QVQLVESGGGLVQAGGSLSLSCAASGRTFKRYAMGWYRQAPGKERELVAAITSSGTSTYADSVKGRFTISRDNAKNTVYFQMNSLKPEDTAVYYCNRGYFNSRTPTFDYWGQGTQVTVSS	low polyreactivity
QVQLVESGGGLVQAGGSLSLSCAASGRTFLYNAMGWYRQAPGKERELVAGITQSGSSTYYADSVKGRFTISRDNAKNTVYLQMNSMKPEDTAVYYCAKVLYRRGYKFDYWGQGTQVTVSS	low polyreactivity
QVQLVESGGGLVQAGGSLSLSCAASGRTFQSYAMGWYRQAPGKERELVATITSRGGSTYYADSVKGRFTISRDNAKYTVYLQMNSLKPEVTAVYYCAKRFKSYLGYDYWGQGTQVTVSS	low polyreactivity
QVQLVESGGGLVQAGGSLSLSCAASGRTFTPNVMGWYRQAPGKERELVAGISSTGGSTYYADSVKGRFTISRDNAKNTVYLHMNSLKPEDTAVYYCAKEYYDGYFPTFDYDYWGQGTQVTVSS	low polyreactivity
QVQLVESGGGLVQAGGSLSLSCAASGRTFVYYAMGWYRQAPGKERELVAAISSSGGRTYYADSVKGRFTISRDNAKNTVYLQMNSLKPEDTAVYYCAARRLSPIYDSWGQGTQVTVSS	high polyreactivity
QVQLVESGGGLVQAGGSLSLSCAASGRTLYSNAMGWYRPAPGKERELVAAISRRGSSTYYADSVKGRFTISRDNAKNSVFLQMNSLKPEDTAVYYCARYKYTRQTRVEYGYWGQGTQVTVSS	high polyreactivity
QVQLVESGGGLVQAGGSLSLSCAASGRTLYVYTMGWYRQAPGKERELVASISSGVGTNYADSVKGRFTISRDNAKNTDYLQMNSLKPEDTAVYYCAARFRYYRHYYWGQGTQVTVSS	high polyreactivity
QVQLVESGGGLVQAGGSLSLSCAASGRTMYTNAMGWYIQAPGKERELVAVITLSTDGTYYADSVKGRFTISRDNAKNTVYLQMNSLKPEDTAVYYCAIGDPDGDREIWRLYYWGQGTKVTVSS	low polyreactivity
QVQLVESGGGLVQAGGSLSLSCAASGSIFESNAMGLYRQAPGKERELVAAYADSVKGRFTISRDNAKNTVYLQMNSLKPEDTAVYYCAKSLSLYVVPLYEYWGQGTQVTVSS	low polyreactivity
QVQLVESGGGLVQAGGSLSLSCAASGSIFYYYAMGWYRKAPGKERELVASIRSGGSTNYADSVKGRFTISRDNAKNTVYLQKNSLKPEDTAVYYCAARKFYASSLRYGYWGQCTQVTVSS	high polyreactivity
QVQLVESGGGLVQAGGSLSLSCAASGSILVGYAMGWYRQAPGKERELVARISTSGGSTTYYADSVKGRFTISRDNAKNTVYLQMNSLKPEDTAVYYCAADYKPYYRRRYDYWGQGTQVTVSS	low polyreactivity
QVQLVESGGGLVQAGGSLSLSCAASGSNFVYYAMGWSRQAPGKERELVAAINFRGGNTYYADSVKGRFTISRDNAKNTVYLQMNSLKPEDTAVYYCAADYRWKWIGGARYDYWGQGTQVTVSS	low polyreactivity
QVQLVESGGGLVQAGGSLSLSCAASGSTFIKNAMGWYRQAPGKESELVAAINWSGTRTYYADSVKGRFTISRDNANNTVYLKMNSLKPEDTAVYYCAKVIARFVRYDYWGQGTQVTVSS	high polyreactivity
QVQLVESGGGLVQAGGSLSLSCAASGSTFQLYAKGWYRQAPGKERELVAAISGIGDSTYYADSVKWRFTISRDNAKNTVYLLMNSLKPEDTAVYYCAREFSDGLSGKFDYWGHGTQVTVSS	low polyreactivity
